Biological target: SARS-CoV-2 spike (S) protein on pseudotyped HIV-1 reporter virus (SARS-CoV-2) (UniProt P0DTC2)
Test: cell-based or functional assay

Sequence of C144 (antibody) (VH): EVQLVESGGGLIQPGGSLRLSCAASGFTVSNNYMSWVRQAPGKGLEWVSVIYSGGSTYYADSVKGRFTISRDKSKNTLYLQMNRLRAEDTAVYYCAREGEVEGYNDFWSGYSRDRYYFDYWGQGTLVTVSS
Sequence of C144 (antibody) (VL): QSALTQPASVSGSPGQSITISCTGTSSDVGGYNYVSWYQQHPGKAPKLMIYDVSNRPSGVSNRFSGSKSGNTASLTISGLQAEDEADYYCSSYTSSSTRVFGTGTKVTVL

Substance: C144 (antibody)
- IC50: 2.86 ng/mL
- IC90: 40.5 ng/mL

Source: US20220195015A1
